Experimental data published in patent US20220153831A1 (HEDGEHOG, published 2022).

T1: active human ETA (purified) (human, UniProt P25101 21-427)
T1 construct: also called human endothelin receptor type A
T1 sequence: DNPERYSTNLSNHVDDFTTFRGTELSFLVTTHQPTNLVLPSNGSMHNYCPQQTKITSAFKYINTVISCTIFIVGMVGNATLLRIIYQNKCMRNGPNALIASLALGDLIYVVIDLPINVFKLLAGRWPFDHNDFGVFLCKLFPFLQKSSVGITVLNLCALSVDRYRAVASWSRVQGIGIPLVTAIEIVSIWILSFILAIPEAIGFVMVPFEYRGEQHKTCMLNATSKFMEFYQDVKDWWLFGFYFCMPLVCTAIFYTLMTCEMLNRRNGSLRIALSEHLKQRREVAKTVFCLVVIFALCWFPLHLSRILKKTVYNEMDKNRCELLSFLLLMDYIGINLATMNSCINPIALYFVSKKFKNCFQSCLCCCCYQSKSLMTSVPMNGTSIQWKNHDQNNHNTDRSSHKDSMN

B1: AB9 (antibody, V domains shown)
VH: EVQLVESGAEVRKPGASVKVSCKASGYTFTSSDINWIRQATGQGLEWMGYMNPKNGNTDYAQKFQGRISMTRDSSISTAYMELSSLRSEDTAVYYCAKDRYGSGTYGEGMDVWGPGTLVT
VL: DIVMTQSPSAMSASVGDRVSITCRASQGINNYLAWFQQKPGKVPKRLMDVGSILQSGIPSRFRGRGSGTQFTLTISSLQAEDSGTYFCLQHNTYPLTFGPGTKVEIKR
notes: also called lead antibody
B2: GG12 (antibody, V domains shown)
VH: EVQLVESGAEVRKPGASVKVSCKASGYTFTSSDINWIRQATGQGLEWMGYMNPKNGNTDYAQKFQGRISMTRDSSISTAYMELSSLRSEDTAVYYCAKDRYGSGVYGFGMDVWGPGTLVT
VL: DIVMTQSPSAMSASVGDRVSITCRASQGINNYLAWFQQKPGKVPKRLMDVGSILQSGIPSRFRGRGSGTQFTLTISSLQAEDSGTYFCLQHNTYPLTFGPGTKVEIKR
notes: also called lead antibody
B3: FG12 (antibody, V domains shown)
VH: EVQLVESGAEVRKPGASVKVSCKASGYTFTSSDINWIRQATGQGLEWMGYMNPKNGNTDYAQKFQGRISMTRDSSISTAYMELSSLRSEDTAVYYCAKDRYGLGTYGFGMDVWGPGTLVT
VL: DIVMTQSPSAMSASVGDRVSITCRASQGINNYLAWFQQKPGKVPKRLMDVGSILQSGIPSRFRGRGSGTQFTLTISSLQAEDSGTYFCLQHNTYPLTFGPGTKVEIKR
notes: also called lead antibody
B4: EF12 (antibody, V domains shown)
VH: EVQLVESGAEVRKPGASVKVSCKASGYTFTSSDINWIRQATGQGLEWMGYMNPKNGNTDYAQKFQGRISMTRDSSISTAYMELSSLRSEDTAVYYCAKDPYGSGTYGFGMDVWGPGTLVT
VL: DIVMTQSPSAMSASVGDRVSITCRASQGINNYLAWFQQKPGKVPKRLMDVGSILQSGIPSRFRGRGSGTQFTLTISSLQAEDSGTYFCLQHNTYPLTFGPGTKVEIKR
notes: also called lead antibody

Target: T1, active human ETA (purified)
Experiment: ELISA on purified active ETA
Experimental: The cross-binding activities of the developed antibodies to human ETA and mouse ETA were tested by ELISA.

Does B1 bind?
Result: binds

Does B2 bind?
Result: binds

Does B3 bind?
Result: binds

Does B4 bind?
Result: binds
